Laboratory results as given in patent US20060240487A1 (published 2006).

How the values were obtained:
[1] = biological target: T1, biotinylated mature GDF-8 dimer (human, UniProt O14793 267-375, biotin on amine groups (lysine residues and/or amino termini); biotin:GDF-8 molar ratio between 0:1 and 3:1); experiment: ELISA standard curve, 4-parameter logistic fit; c = concentration resulting in signal at approximately midpoint between a and d; biotinylated GDF-8 on streptavidin plate
T1 construct: Captured on streptavidin-coated plates; also called Biotinylated GDF-8; biotinylated mature GDF-8 protein
Experimental: To detect MYO-029 in a human serum sample, an ELISA was performed as follows. Streptavidin was adsorbed by first adding streptavidin coating solution (100 μL/well) (5 μg/mL ImmunoPure streptavidin (Pierce) in 0.1 M Carbonate/Bicarbonate buffer, pH 9.6) to the wells of a 96 well plate (high binding flat-bottom microtiter) (Costar, Cat. No. 3590). The plate was covered with sealing film and incubated at 2-8° C. overnight. Using an automatic plate washer, the plate was washed four times (4×) with THST buffer (300 μL/well) (50 mM Tris-HCl, pH 8.0, containing 1.0 mM glycine, 0.5 M NaCl, and 0.05% v/v/ Tween 20® (J. T. Baker)), reversing the orientation of the plate after the second wash. To block, 200 μL of blocking buffer (1% bovine albumin (Sigma), 0.02% sodium azide in PBS (Dulbeccos)) was added to each well. The plate was covered with sealing film and incubated for 1-2 hours at room temperature and then washed as above. […]
A MYO-029 working calibrator solution was prepared of 1080 ng/mL MYO-029 in normal human serum (Bioreclamation, Inc.) The 1080 ng/mL stock was fist diluted 8-fold in assay buffer (THST buffer+4% nonfat dry milk), and then a series of 1.5 fold dilutions of the resulting 135 ng/mL standard were prepared in THST+4% nonfat dry milk+12.5% normal human serum to yield the calibration standard concentrations. […] For human serum, the minimum dilution determined was 1:8. […]

[2] = biological target: T1, biotinylated mature GDF-8 dimer; experiment: ELISA standard curve parameters of the rat serum experiment; biotinylated GDF-8 on streptavidin plate

EC50 [1]: 0.0728 µg/mL
EC50 [2]: 0.0587 µg/mL
B1: MYO-029 (antibody, V domains shown)
VH: QVQLVQSGAEVKKPGASVKVSCKASGYTFTSYYMHWVRQAPGQGLEWMGIINPSGGSTSYAQKFQGRVTMTRDTSTSTVYMELSSLRSEDTAVYYCARDENWGFDPWGQGTLVTVSS
VL: SYELTQPPSVSVSPGQTATITCSGHALGDKFVSWYQQGSGQSPVLVIYDDTQRPSGIPGRFSGSNSGNTATLTISGTQAMDEADYFCQAWDSSFVFGGGTKVTVL
notes: also called fully human antibody
